Target: bovine lactoferrin (Lf) (bovine)
Assay: […]; 20 mM HEPES pH 7.4, 150 mM NaCl

With “C-terminal α-helical domain (CaHD) of Moraxella bovis LbpB (domain or fragment)” the stoichiometry N was 1.
